From US20040024185A1

What was measured:
Experiment in all cases: cell-based or functional assay
[1] = molecular target: T1, NF-AT4 expressed from an expression construct
T1 sequence (Q12968 2-1075, species assumed, looked up): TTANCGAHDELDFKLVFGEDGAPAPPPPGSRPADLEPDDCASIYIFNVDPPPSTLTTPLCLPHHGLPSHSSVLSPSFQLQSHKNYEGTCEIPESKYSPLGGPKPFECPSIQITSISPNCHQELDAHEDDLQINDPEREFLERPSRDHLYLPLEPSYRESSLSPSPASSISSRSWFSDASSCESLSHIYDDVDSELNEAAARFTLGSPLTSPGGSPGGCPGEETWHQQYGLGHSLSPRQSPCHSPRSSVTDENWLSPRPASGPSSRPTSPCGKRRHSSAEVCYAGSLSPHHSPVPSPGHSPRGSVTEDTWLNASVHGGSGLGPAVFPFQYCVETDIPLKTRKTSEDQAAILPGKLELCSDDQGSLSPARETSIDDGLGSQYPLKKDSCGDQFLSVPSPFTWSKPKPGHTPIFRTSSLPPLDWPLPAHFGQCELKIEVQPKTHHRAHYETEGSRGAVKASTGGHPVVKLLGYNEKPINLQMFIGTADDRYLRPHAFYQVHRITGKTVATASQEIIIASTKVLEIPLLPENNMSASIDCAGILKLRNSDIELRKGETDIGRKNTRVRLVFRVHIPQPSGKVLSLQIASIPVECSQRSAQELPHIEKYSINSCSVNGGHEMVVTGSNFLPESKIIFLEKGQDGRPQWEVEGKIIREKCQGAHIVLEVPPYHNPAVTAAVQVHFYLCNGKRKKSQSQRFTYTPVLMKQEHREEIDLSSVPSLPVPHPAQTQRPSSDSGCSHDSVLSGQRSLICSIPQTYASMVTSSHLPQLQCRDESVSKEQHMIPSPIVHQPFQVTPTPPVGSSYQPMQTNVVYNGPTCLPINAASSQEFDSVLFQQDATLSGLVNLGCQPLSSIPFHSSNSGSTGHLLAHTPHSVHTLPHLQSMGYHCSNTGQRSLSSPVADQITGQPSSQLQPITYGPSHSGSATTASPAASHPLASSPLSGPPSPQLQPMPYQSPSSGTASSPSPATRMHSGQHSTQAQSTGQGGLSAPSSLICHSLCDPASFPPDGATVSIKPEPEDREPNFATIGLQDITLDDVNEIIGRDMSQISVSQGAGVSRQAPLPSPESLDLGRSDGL

[2] = molecular target: T2, NF-ATp expressed from an NF-ATp expression plasmid in HepG2 cells
T2 sequence (Q13469 1-925, species assumed, looked up): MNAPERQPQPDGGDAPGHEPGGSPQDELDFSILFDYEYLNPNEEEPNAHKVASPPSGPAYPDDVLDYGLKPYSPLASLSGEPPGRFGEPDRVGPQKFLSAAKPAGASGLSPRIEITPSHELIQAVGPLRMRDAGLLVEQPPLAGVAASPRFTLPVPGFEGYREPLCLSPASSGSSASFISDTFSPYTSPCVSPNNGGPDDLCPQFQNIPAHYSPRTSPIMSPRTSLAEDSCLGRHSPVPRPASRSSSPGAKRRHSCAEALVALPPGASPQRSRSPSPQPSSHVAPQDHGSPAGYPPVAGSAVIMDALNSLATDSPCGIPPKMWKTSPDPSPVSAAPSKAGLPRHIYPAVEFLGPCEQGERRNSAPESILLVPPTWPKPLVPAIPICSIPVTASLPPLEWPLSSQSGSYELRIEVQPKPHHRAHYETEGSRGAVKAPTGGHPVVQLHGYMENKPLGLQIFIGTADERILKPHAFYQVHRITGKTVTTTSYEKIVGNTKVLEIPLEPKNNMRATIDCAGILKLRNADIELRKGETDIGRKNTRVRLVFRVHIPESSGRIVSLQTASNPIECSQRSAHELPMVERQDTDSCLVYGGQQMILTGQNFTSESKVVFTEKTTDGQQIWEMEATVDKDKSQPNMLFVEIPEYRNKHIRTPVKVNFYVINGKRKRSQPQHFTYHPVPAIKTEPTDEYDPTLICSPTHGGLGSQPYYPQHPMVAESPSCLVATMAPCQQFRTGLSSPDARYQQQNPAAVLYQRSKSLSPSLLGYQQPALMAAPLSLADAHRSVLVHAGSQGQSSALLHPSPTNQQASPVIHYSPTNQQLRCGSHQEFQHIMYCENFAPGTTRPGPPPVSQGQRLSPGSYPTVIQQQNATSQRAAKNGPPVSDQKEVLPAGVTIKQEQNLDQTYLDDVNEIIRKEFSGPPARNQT

[3] = molecular target: T3, NF-ATc expressed from an expression construct in HepG2 cells
T3 sequence (O95644 1-943, species assumed, looked up): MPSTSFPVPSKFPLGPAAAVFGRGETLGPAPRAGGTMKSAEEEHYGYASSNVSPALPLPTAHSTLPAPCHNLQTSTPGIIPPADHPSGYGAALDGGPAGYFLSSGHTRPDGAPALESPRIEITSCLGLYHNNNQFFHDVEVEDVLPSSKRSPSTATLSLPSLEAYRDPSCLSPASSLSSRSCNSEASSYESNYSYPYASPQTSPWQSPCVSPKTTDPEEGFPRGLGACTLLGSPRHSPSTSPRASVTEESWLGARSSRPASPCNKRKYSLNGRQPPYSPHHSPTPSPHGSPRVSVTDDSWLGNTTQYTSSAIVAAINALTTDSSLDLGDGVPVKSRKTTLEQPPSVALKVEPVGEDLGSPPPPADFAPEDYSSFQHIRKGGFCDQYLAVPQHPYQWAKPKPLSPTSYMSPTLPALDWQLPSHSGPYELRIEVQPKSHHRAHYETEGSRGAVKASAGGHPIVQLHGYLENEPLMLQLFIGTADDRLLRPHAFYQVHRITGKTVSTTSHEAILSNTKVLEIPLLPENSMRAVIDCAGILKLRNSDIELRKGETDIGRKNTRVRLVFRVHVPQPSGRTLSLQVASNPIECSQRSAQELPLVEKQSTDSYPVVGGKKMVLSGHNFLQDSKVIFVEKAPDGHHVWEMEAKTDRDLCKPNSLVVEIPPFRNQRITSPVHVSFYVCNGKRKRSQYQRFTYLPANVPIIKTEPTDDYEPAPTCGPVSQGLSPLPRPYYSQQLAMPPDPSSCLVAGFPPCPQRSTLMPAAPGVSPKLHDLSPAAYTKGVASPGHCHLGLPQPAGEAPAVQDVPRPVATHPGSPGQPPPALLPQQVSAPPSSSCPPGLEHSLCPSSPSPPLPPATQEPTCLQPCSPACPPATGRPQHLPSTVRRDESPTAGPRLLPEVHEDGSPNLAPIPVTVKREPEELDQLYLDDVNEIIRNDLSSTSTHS

[4] = molecular target: T4, NF-AT3 expressed from an expression construct in HepG2 cells
T4 sequence (Q14934 1-902, species assumed, looked up): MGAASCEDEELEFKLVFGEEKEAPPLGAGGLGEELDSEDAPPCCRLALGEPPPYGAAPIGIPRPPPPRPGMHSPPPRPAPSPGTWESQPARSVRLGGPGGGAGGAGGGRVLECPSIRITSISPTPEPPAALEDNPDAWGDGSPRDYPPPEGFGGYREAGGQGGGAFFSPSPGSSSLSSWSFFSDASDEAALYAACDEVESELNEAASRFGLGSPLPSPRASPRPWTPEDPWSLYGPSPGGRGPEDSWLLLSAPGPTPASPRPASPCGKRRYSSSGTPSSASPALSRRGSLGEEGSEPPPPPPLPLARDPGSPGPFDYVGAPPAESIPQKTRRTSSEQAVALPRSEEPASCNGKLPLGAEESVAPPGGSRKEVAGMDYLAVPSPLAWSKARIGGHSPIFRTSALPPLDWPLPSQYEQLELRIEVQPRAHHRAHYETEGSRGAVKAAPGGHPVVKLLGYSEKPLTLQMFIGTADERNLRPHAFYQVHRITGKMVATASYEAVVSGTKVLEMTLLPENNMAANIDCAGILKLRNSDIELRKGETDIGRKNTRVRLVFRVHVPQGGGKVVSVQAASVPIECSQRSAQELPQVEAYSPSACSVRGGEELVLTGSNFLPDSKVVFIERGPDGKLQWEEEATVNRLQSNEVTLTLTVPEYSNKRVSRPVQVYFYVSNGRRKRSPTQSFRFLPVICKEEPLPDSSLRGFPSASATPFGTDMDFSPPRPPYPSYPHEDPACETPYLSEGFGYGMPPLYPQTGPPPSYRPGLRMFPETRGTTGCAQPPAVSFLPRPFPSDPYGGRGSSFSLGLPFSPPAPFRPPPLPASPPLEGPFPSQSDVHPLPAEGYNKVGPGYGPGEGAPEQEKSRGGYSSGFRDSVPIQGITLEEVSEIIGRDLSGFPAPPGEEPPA

transactivation of a 3X NF-AT-CAT reporter in HepG2 cells [1]: 2 fold
CAT activity of a 3X NF-AT-CAT reporter in HepG2 cells, relative to NF-ATp alone [2]: 4 to 5 fold
CAT activity of a 3X NF-AT-CAT reporter in HepG2 cells, relative to vector alone [2]: 25 to 30 fold
transactivation of a 3X NF-AT-CAT reporter in HepG2 cells [3]: 4 fold
transactivation of a 3X NF-AT-CAT reporter in HepG2 cells [4]: 3 fold
B1: NIP45 expressed from a NIP45 expression plasmid (protein)
chain: MAEPLRGRGPRSRGGRGARRARGARGRCPRARQSPARLIPDTVLVDLVSDSDEEVLEVADPVEVPVARLPAPAKPEQDSDSDSEGAAEGPAGAPRTLVRRRRRRLLDPGEAPVVPVYSGKVQSSLNLIPDNSSLLKLCPSEPEDEADLTNSGSSPSEDDALPSGSPWRKKLRKKCEKEEKKMEEFPDQDISPLPQPSSRNKSRKHTEALQKLREVNKRLQDLRSCLSPKQHQSPALQSTDDEVVLVEGPVLPQSSRLFTLKIRCRADLVRLPVRMSEPLQNVVDHMANHLGVSPNRILLLFGESELSPTATPSTLKLGVADIIDCVVLASSSEATETSQELRLRVQGKEKHQMLEISLSPDSPLKVLMSHYEEAMGLSGHKLSFFFDGTKLSGKELPADLGLESGDLIEVWG
